Experimental findings from patent publication US20250018053A1 are described below.

Holding throughout (assay): flow cytometry, transfected CHO cells
Background: In flow cytometry, cells or beads pass a laser one at a time.

Test [1] concerns the target Mouse N4.
The target of test [2] is Rat N4.
Test [3] addresses Monkey N4.
The target of test [4] is Human N4 (human) (UniProt Q96NY8).
Human N4 (human), sequence (Q96NY8 32-510): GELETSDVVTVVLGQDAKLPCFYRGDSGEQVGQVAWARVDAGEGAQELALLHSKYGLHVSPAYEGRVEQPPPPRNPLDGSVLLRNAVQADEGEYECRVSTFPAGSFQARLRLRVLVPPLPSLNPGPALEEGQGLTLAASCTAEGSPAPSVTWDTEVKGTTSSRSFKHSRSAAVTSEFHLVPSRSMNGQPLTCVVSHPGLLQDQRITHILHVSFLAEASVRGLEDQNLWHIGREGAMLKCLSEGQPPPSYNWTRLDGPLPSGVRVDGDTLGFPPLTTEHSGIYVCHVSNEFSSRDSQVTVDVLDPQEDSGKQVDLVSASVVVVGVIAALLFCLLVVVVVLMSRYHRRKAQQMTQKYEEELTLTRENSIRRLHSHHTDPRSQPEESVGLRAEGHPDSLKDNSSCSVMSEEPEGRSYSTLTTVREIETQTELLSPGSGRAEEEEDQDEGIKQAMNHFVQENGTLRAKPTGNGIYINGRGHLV

As to Enfortumab (HA22), the EC50 was 41.1 nM in test [1], 0.097 nM in test [2], 0.0678 nM in test [3] and 0.346 nM in test [4].

A word on the EC50: it is the concentration giving half of the maximal effect.
